Results reported in patent US20200277405A1, “COMPOSITION FOR ANTIBODY-DRUG CONJUGATE DIRECTED AGAINST TUMOR-CELL ASSOCIATED POLYSIALIC ACID” (Cornell University, priority 2019, published 2020).

Key:
[1] = system: ST8SiaIV KO SW2 cells; experiment: Flow cytometry binding to ST8SiaIV knockout cells; format: cell-based, human
Excerpt: FIGS. 8A-8C depict binding of polySia-specific mAb to ST8SiaII and ST8SiaIV knockout cell lines. […] Data are the geometric mean fluorescence intensity (MFI), with the values reported as the average of three replicates and the error represented as the standard deviation of the mean. […] In the ST8SiaII KO SW2 cells, 73% of the population (FL1-H-) binds mo735 below the level of the wild-type SW2 cells. […] In the ST8SiaIV KO SW2 cells, 68% of the population (FL1-H-) binds mo735 below the level of the wild-type SW2 cells.
CRISPR guide RNAs targeting ST8SiaII (crRNA1: […]; SEQ ID NO: 5) and ST8Sia4 (crRNA1: […]; SEQ ID NO: 6) were purchased from Genscript in the pLentiCRISPR v2 vector. Knockout cell lines were generated in SW2 cells using protocols described by Zhang and colleagues (Shalem et al., “Genome-Scale CRISPR-Cas9 Knockout Screening in Human Cells,” Science 343:84-7 (2014), which is hereby incorporated by reference in its entirety). Briefly, after lentiviral transduction, cells were maintained under selection with 1 μg/mL puromycin for at least 14 days prior to analysis by flow cytometry.
Cancer cells were trypsinized and collected with media, followed by three washes in PBS. […] Cells were washed three times, resuspended in 500 μL of 0.5% BSA in PBS, and analyzed on a BD FACSCalibur flow cytometer using Cell Quest Pro software (BD Biosciences).

[2] = system: SW2 cells; experiment: Colocalization microscopy, SW2; format: cell-based, human; settings: transferrin and LAMP-3 markers
Protocol: FIGS. 12A-12C depict colocalization of mo735 with markers that traffic to endolysosomal compartments. […] For LAMP-1 (right), confocal microscopic images were taken after labeling SH-SY5Y cells with ch735 or isotype antibody for 2 h. Following fixation and permeabilization, LAMP-1 antibody was applied and detected with anti-rabbit AF647 secondary. Anti-human IgG AF488 was used to detect ch735 or isotype antibody. […] Cross-sectional fluorescence profiles are shown at right with normalized pixel intensity for selected cells (marked with box in left confocal panels) versus distance across the cell for representative cross sections (marked with bar in right confocal panels).
SH—SY5Y or SW2 cells were plated at 20,000 cells/cm^2 on poly-L-lysine coated 35 mm glass bottom dishes and adhered overnight. To remove polySia, cells were treated as described above. To measure receptor-antibody internalization, cells were incubated with 150 nM AF488 labeled ch735, human IgG isotype control (ThermoFisher Scientific), mo735, or mouse IgG isotype control (anti-MBP mAb, NEB) and 100 nM AF647 transferrin or AF647 anti-LAMP-3 antibody (Santa Cruz) for 1 h. Cells were washed and then fixed as described above. […] The fluorescence intensity of the plot profile was analyzed using FIJI software. Fluorescence intensity was normalized to the maximum value for each channel.

[3] = previous SPR and ITC experiments; cited from earlier work
[4] = target: embryonic brain glycopeptides; settings: against embryonic brain glycopeptides (Hayrinen et al.); read-out: previously reported Kd; cited from earlier work
[5] = system: polysialylated NCAM; experiment: Glycoprotein array specificity profiling; format: binding, chicken
Protocol: FIGS. 2A-2D depict binding specificity and affinity of the ch735 antibody. […] ELISA signals (Abs370) were obtained with anti-human IgG secondary antibodies. […] Antibodies were assayed at 1 μg/mL and detected with anti-human IgG secondary antibodies. […] Antibodies were assayed at 10 μg/mL and detected with anti-mouse IgG secondary antibodies.
FIGS. 3A-3D depict binding specificity and affinity of mo735 antibody. […] ELISA signals (Abs370) were obtained with anti-mouse IgG secondary antibodies. […] Antibodies were assayed at 1 μg/mL and detected with anti-mouse IgG secondary antibodies. […] Antibodies were assayed at 10 μg/mL and detected with anti-mouse IgG secondary antibodies.
Specificity of mo735 and ch735 was determined using printed glycan arrays 5.3 and 5.4 at the CFG. Both antibodies were analyzed at 10 μg/mL with 5 μg/mL of anti-mouse or anti-human Alexa-Fluor 647 (AF647)-conjugated secondary, respectively. Specificity of mo735 (1 μg/mL) and ch735 (10 μg/mL) was also assessed on a custom glycoprotein array that contained ˜40-50 glycoproteins including chicken brain NCAM and endoN-treated chicken brain NCAM.

B1: mo735: well-known mouse-derived IgG2a monoclonal antibody 735 targeting polysialic acid (antibody, V domains shown)
VH: QIQLQQSGPELVRPGASVKISCKASGYTFTDYYIHWVKQRPGEGLEWIGWIYPGSGNTKYNEKFKGKATLTVDTSSSTAYMQLSSLTSEDSAVYFCARGGKFAMDYWGQGTSVTVSS
VL: DVVMTQTPLSLPVSLGDQASISCRSSQSLVHSNGNTYLYWYLQKPGQSPKPLIYRVSNRFSGVPDRFSGSGSGTDFTLKISRVEAEDLGVYFCFQGTHVPYTFGGGTRLEIK
- population (FL1-H-) binding below the level of wild-type SW2 cells [1]: 68%
- compartments of accumulation after internalization (confocal) [2]: compartmentalized in early and recycling endosomes
- preferred polySia chain length [3]: 8-11 sialic acid residues
- Kd [4]: ~5 nM

B2: ch735: chimeric human IgG1 polySia-specific mAb made by swapping variable regions of mouse mAb 735 (antibody, V domains shown)
VH: QIQLQQSGPELVRPGASVKISCKASGYTFTDYYIHWVKQRPGEGLEWIGWIYPGSGNTKYNEKFKGKATLTVDTSSSTAYMQLSSLTSEDSAVYFCARGGKFAMDYWGQGTSVTVSS
VL: DVVMTQTPLSLPVSLGDQASISCRSSQSLVHSNGNTYLYWYLQKPGQSPKPLIYRVSNRFSGVPDRFSGSGSGTDFTLKISRVEAEDLGVYFCFQGTHVPYTFGGGTRLEIK
- glycoprotein array binding ([5]; array of ~50 glycoproteins): strong preference for polysialylated NCAM
- signal towards any other glycomolecules ([5]; microarrays, including endoN-treated NCAM spotted on the glycoprotein array): no significant signal
